Measured values published in patent US20260042834A1 (HBM ALPHA THERAPEUTICS, published 2026).
Several values for one entry are separate records, joined by “and”; a condition that tells them apart may be missing. Identical values can stand only once.

T1: human UCN2 peptide (human, UniProt Q96RP3 72-109, limits assumed, not fully specified; biotin at N- or C-terminus in the ELISA)
T1 construct: also called hUCN2; hUCN2 (NT Biotin)
T1 peptide (looked up): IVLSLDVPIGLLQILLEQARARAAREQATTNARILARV

T2: CRH (NT Biotin) (human and mouse, not fully specified; biotin at the N-terminus)
T2 peptide: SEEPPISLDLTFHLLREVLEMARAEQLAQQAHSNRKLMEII

T3: hUCN1 (CT Biotin) (human, UniProt P55089 83-122, biotin at the C-terminus)
T3 construct: also called human UCN1 (CT biotin)
T3 peptide (looked up): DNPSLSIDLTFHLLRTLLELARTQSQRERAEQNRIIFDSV

T4: hUCN1 (NT Biotin) (human, UniProt P55089 83-122, biotin at the N-terminus)
T4 construct: also called human UCN1 (NT biotin)
T4 peptide (looked up): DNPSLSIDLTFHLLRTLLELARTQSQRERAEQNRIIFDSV

T5: human UCN3 peptide (human, UniProt Q969E3 120-157, not fully specified; biotin at N- or C-terminus in the ELISA)
T5 construct: also called hUCN3; hUCN3 (NT Biotin)
T5 peptide (looked up): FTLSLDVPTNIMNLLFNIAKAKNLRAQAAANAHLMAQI

T6: biotinylated CRH (human and mouse, not fully specified; biotinylated, position not stated)
T6 construct: also called Biotin-CRH; biotin-labeled CRH
T6 peptide: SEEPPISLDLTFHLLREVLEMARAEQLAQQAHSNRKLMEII

T7: corticotropin-releasing hormone (CRH) peptide (human and mouse, not fully specified)
T7 peptide: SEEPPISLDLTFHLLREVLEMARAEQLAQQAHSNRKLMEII

T8: human UCN1 peptide (human, UniProt P55089 83-122)
T8 peptide (looked up): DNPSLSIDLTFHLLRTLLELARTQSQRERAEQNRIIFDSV

T9: CRH (CT Biotin) (human and mouse, C-terminal K-Biotin)
T9 construct: also called Peptide 4 (CRH-Biotin)
T9 peptide: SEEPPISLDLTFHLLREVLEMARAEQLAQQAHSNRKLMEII

T10: N-Terminal CRH (human and mouse, C-terminal K-Biotin)
T10 construct: also called N-Ter-CRH (CT-Bion)
T10 peptide: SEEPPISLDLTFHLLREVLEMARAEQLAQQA


Experiments:
human UCN2 peptide = target: T1, human UCN2 peptide; assay: ELISA on streptavidin-captured hUCN2 (NT biotin) and hUCN2 (CT biotin), mAb at 100 nM and 10 nM, OD450
Protocol: (§1) Streptavidin (Thermo, Cat: 21125) was diluted in PBS with a concentration of 2 μg/mL. 100 μL of diluted streptavidin was added per well to ELISA microplates, and the plates were incubated overnight at 4° C. Plates were blocked with ELISA blocking solution (containing 2% w/v BSA, 0.05% (v/v) Tween-20, pH 7.4 PBS buffer) at 37° C. for 1 hour, and then incubated with either 1 μg/mL hUCN1 (NT Biotin), hUCN1 (CT Biotin), hUCN2 (NT Biotin), hUCN2 (CT Biotin), hUCN3 (NT Biotin), or hUCN3 (CT Biotin) for 1 hour at 37° C. […] 100 μl of TMB Substrate (Biopanda, Cat: TMB-S-003) was added, and the plates were incubated at room temperature for 15 minutes. 100 μL of ELISA stopping solution (Solarbio, Cat #: C1058) was then added to terminate the reaction, and the OD450 nm was determined by an ELISA plate reader (Molecular Devices, Spectra max 384 plus).

CRH (NT Biotin) = target: T2, CRH (NT Biotin); assay: ELISA, biotin peptide on streptavidin plate
Protocol: (§2) Streptavidin (Thermo, Cat: 21125) was diluted in PBS to a concentration of 2 μg/ml. 100 μl of diluted streptavidin was added per well to ELISA microplates, and the plates were incubated overnight at 4° C. […] 100 μL of 3,3′,5,5′-tetramethylbenzidine (TMB) substrate (Biopanda, Cat: TMB-S-003) was added, and the plates were incubated at room temperature for 15 minutes. 100 μL of ELISA stopping solution (Solarbio, Cat #: C1058) was added to terminate the reaction, and the optical density at 450 nm (OD450 nm) was determined by an ELISA plate reader (Molecular Devices, Spectra max 384 plus).

hUCN1 (CT Biotin) = target: T3, hUCN1 (CT Biotin); assay: ELISA, biotin peptide on streptavidin plate
Protocol: as §2

hUCN1 (NT Biotin) = target: T4, hUCN1 (NT Biotin); assay: ELISA, biotin peptide on streptavidin plate
Protocol: as §2

human UCN3 peptide = target: T5, human UCN3 peptide; assay: ELISA on streptavidin-captured hUCN3 (NT biotin) and hUCN3 (CT biotin), mAb at 100 nM and 10 nM, OD450
Protocol: as §1

biotinylated CRH [1] = target: T6, biotinylated CRH; assay: Octet BLI, biotinylated CRH on SA sensor
[2] = target: T7, corticotropin-releasing hormone (CRH) …; assay: cell-based or functional assay
human UCN1 peptide = target: T8, human UCN1 peptide; assay: cell-based or functional assay
CRH (CT Biotin) = target: T9, CRH (CT Biotin); assay: ELISA, biotin peptide on streptavidin plate
Protocol: as §2

N-Terminal CRH = target: T10, N-Terminal CRH; assay: ELISA, biotin peptide on streptavidin plate
Protocol: as §2

biotinylated CRH [3] = target: T6, biotinylated CRH; assay: competitive ELISA, coated 1st mAb; competitor hIgG1
Protocol: (§3) For epitope binding, a competitive ELISA was performed. Specifically, 1 μg/ml of capture antibody, 100 μl/well, was coated on a 96 well-plate at 4° C. overnight. Plates were blocked with ELISA blocking solution (containing 2% w/v BSA, 0.05% (v/v) Tween-20, pH 7.4 PBS buffer) at 37° C. for 1 hour. […] Subsequently, plates were washed and incubated with Streptavidin-Peroxidase (SIGMA, Cat: 52438-250UG) at 37° C. for 1 hour. 100 μL of 3,3′,5,5′-tetramethylbenzidine (TMB) substrate (Biopanda, Cat: TMB-S-003) was added, and the plates were incubated at room temperature for 15 minutes. 100 μL of ELISA stopping solution (Solarbio, Cat #: C1058) was added to terminate the reaction, and the optical density at 450 nm (OD450 nm) was determined by an ELISA plate reader (Molecular Devices, Spectra max 384 plus).

biotinylated CRH [4] = target: T6, biotinylated CRH; assay: competitive ELISA, coated 1st mAb; competitor PR302050
Protocol: as §3

biotinylated CRH [5] = target: T6, biotinylated CRH; assay: competitive ELISA, coated 1st mAb; competitor PR302064
Protocol: as §3

biotinylated CRH [6] = target: T6, biotinylated CRH; assay: competitive ELISA, coated 1st mAb; competitor PR006148
Protocol: as §3

biotinylated CRH [7] = target: T6, biotinylated CRH; assay: competitive ELISA, coated 1st mAb; competitor PR006152
Protocol: as §3

biotinylated CRH [8] = target: T6, biotinylated CRH; assay: competitive ELISA, coated 1st mAb; competitor PR301777
Protocol: as §3

biotinylated CRH [9] = target: T6, biotinylated CRH; assay: competitive ELISA, coated 1st mAb; competitor PR005660
Protocol: as §3

biotinylated CRH [10] = target: T6, biotinylated CRH; assay: competitive ELISA, coated 1st mAb; competitor PR004290
Protocol: as §3

biotinylated CRH [11] = target: T6, biotinylated CRH; assay: competitive ELISA, coated 1st mAb; competitor PR302055
Protocol: as §3

biotinylated CRH [12] = target: T6, biotinylated CRH; assay: competitive ELISA, coated 1st mAb; competitor PR302069
Protocol: as §3

Row | Binder | binding result (human UCN2 peptide) | EC50 (CRH (NT Biotin)) [nM] | EC50 (hUCN1 (CT Biotin)) [nM] | EC50 (hUCN1 (NT Biotin)) [nM] | binding result (human UCN3 peptide) | Kd (biotinylated CRH [1]) | CHO-CRE-hCRHR1 0.5 nM CRH IC50 [2] [nM] | CHO-CRE-hCRHR1 1 nM hUCH1 IC50 (human UCN1 peptide) [nM] | EC50 (CRH (CT Biotin)) [nM] | EC50 (N-Terminal CRH) [nM] | % Inhibition (biotinylated CRH [3]) [%] | % Inhibition (biotinylated CRH [4]) [%] | % Inhibition (biotinylated CRH [5]) [%] | % Inhibition (biotinylated CRH [6]) [%] | % Inhibition (biotinylated CRH [7]) [%] | % Inhibition (biotinylated CRH [8]) [%] | % Inhibition (biotinylated CRH [9]) [%] | % Inhibition (biotinylated CRH [10]) [%] | % Inhibition (biotinylated CRH [11]) [%] | % Inhibition (biotinylated CRH [12]) [%]
1 | PR303394 (antibody, human IgG1, kappa, V domains shown, also called analog of CTRND05) VH: EVQLQQSGPELVKPGVSMKISCKASGYSFTDSTMNWVKQSHGKNLEWIGLIHPDNGGTIYNQKFKGKATLTVHKSSSTAYMELLSLTSEDSAVYYCANGFAYWGQGTLVTVSA VL: DVVMTQTPLSLPVSLGDQASISCRSSQSLLHSNGNTYLHWYLQKPGQSPELLIYKVSNRFSGVPDRFSGSGSGTDFTLKISRVEAEDLGVYFCSQSTHVPLTFGAGTKLELKR | no binding (tested: 100 nM) | 0.028 | 0.022 | 0.018 | no binding (tested: 100 nM) | 0.0136 nM | 2.77 | 42.5 | – | – | – | – | – | – | – | – | – | – | – | –
2 | PR005660 (antibody, human IgG1, kappa, V domains shown, PTM-removal variant of PR004290) VH: EVQLVESGGVLVQPGGSLRLSCAASGFTFSSYWMTWVRQAPGKGLEWVANIKQEGSEKYYVDSVKGRFTISRDNAKNSLFLQMNSLRAEDTAVYYCARTLIFDYWGQGTLVTVSS VL: DIVMTQSPLSLPVTPGEPASISCRSSQSLLHSTGYQSLEWYLQKPGQSPQLLIYLGSNRASGVPDRFSGSGSGTDFTLKISRVEAEDVGIYYCMQTLQTPITFGQGTRLEIKR | no binding (tested: 100 nM) | 0.028 | – | 9.37 | no binding (tested: 100 nM) | 0.12 nM and 0.0409 nM | 10.3 | – | 0.054 | 0.076 | – | – | – | – | – | – | – | – | – | –
3 | PR302055 (antibody, human IgG1, kappa, V domains shown, Humanized variant of PR301777) VH: EMQLVESGGGLVQPGGSLKLSCAASGFTFSNYWMNWVRQASGKGLEWVAEIRLKSNNYATHYAESVKGRFTISRDDSKSTVYLQMNSLKTEDTAVYYCTVGTLVYWGQGTLVTVSS VL: DIQLTQSPSSLSASVGDRVTITCRASQSVSTSTYNYMHWFQQKPGKAPKLLIKFASNLESGVPSRFSGSGSGTDFTLTISSLQPEDTATYYCQHSWEIPYTFGQGTKLEIKR | – | – | – | – | – | – | – | – | – | – | 2 | 95 | 95 | 95 | 95 | 94 | 94 | 94 | 95 | 95
4 | PR302069 (antibody, human IgG1, kappa, V domains shown, Humanized variant of PR301777) VH: EMQLVESGGGLVKPGGSLRLSCAASGFTFSNYWMNWVRQAPGKGLEWVAEIRLKSNNYATHYAESVKGRFTISRDDSKSTVYLQMNSLKTEDTAVYYCTVGTLVYWGQGTLVTVSS VL: DIQLTQSPSSLSASVGDRVTITCRASQSVSTSTYNYMHWFQQKPGKAPKLLIKFASNLESGVPSRFSGSGSGTDFTLTISSLQPEDTATYYCQHSWEIPYTFGQGTKLEIKR | – | – | – | – | – | – | – | – | – | – | 0 | 95 | 95 | 95 | 94 | 94 | 94 | 93 | 95 | 95
